# Reference: patent US20230302148A1, “PHARMACEUTICAL COMPOSITION COMPRISING LONG-ACTING CONJUGATE OF TRIPLE GLUCAGON/GLP-1/GIP RECEPTOR AGONIST” (HANMI PHARM. CO., LTD., priority 2020, published 2023)
# Bridges are numbered along the chain shown (N, C = ends). Where no end group is shown, it is not given here. [ ]: non-standard residue; d: D form. The star is where a group is joined. Acetyl(2-(4-imidazolyl)) = O=C(Cc1c[nH]cn1)*; Aib = CC(C)(N)C(=O)O
# T1: human GIP receptor (human, UniProt P48546 22-466)
# T1 sequence (looked up): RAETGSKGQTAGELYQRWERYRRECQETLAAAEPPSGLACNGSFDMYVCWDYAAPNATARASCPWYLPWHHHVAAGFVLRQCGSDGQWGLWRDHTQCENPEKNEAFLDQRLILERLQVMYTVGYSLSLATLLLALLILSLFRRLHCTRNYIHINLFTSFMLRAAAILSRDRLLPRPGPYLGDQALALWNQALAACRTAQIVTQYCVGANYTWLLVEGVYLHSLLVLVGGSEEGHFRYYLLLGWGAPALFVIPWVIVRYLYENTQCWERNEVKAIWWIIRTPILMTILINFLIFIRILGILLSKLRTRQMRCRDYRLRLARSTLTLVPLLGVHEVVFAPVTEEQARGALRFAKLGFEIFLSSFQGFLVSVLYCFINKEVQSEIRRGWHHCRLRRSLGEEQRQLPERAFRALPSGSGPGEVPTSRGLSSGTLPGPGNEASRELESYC
# Columns and labels:
# Experiment in all cases: cell-based or functional assay
# human GLP-1 receptor = human GLP-1 receptor (human, UniProt P43220 24-463)
# human GCG receptor = human GCG receptor (human, UniProt P47871 26-477)
# human GCG receptor, sequence (P47871 26-477): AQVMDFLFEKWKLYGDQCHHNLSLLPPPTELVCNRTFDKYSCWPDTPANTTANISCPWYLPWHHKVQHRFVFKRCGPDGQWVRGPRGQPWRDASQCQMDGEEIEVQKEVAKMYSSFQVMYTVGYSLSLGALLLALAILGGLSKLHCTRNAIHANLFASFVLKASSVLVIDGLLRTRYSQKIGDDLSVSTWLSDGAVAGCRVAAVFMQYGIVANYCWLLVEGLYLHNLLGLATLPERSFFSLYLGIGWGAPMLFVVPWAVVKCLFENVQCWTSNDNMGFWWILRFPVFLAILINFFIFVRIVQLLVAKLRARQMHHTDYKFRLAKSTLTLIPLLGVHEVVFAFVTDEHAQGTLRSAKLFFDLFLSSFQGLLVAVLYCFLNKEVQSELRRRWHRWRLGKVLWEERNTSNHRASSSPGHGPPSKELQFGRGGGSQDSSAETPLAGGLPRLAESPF
# human GIP receptor = biological target: T1, human GIP receptor
binder,measurement,setting,value
H[Aib]QGTFTSDYSKYLDECRQKEFVQWLLNGGPSSGAPPPSG (bridge 16-20) [triple agonist of SEQ ID NO: 37],In vitro activity relative to native peptide (%) vs. GLP-1,human GLP-1 receptor,236%
same,In vitro activity relative to native peptide (%) vs. Glucagon,human GCG receptor,6.21%
same,In vitro activity relative to native peptide (%) vs. GIP,human GIP receptor,2.2%
H[Aib]QGTFTSDYSKYLDEKRQKEFVQWLLNTC (bridge 16-20) [triple agonist of SEQ ID NO: 51],In vitro activity relative to native peptide (%) vs. GLP-1,human GLP-1 receptor,14.4%
same,In vitro activity relative to native peptide (%) vs. Glucagon,human GCG receptor,2%
same,In vitro activity relative to native peptide (%) vs. GIP,human GIP receptor,0.1%
H[Aib]QGTFTSDKSKYLDECAAQDFVQWLLDGGPSSGAPPPS [triple agonist of SEQ ID NO: 41],In vitro activity relative to native peptide (%) vs. GLP-1,human GLP-1 receptor,34.3%
same,In vitro activity relative to native peptide (%) vs. Glucagon,human GCG receptor,< 0.1%
same,In vitro activity relative to native peptide (%) vs. GIP,human GIP receptor,< 0.1%
Y[Aib]QGTFTSDYSKYLDEKRAKEFVQWLLDHHPSSGQPPPSC (bridge 16-20) [triple agonist of SEQ ID NO: 42],In vitro activity relative to native peptide (%) vs. GLP-1,human GLP-1 receptor,33.9%
same,In vitro activity relative to native peptide (%) vs. Glucagon,human GCG receptor,206%
same,In vitro activity relative to native peptide (%) vs. GIP,human GIP receptor,7.8%
H[Aib]QGTFTSDYSIAMDEIHQKDFVNWLLAQC (bridge 16-20) [triple agonist of SEQ ID NO: 55],In vitro activity relative to native peptide (%) vs. GLP-1,human GLP-1 receptor,27.1%
same,In vitro activity relative to native peptide (%) vs. Glucagon,human GCG receptor,0.7%
same,In vitro activity relative to native peptide (%) vs. GIP,human GIP receptor,2.4%
H[Aib]EGTFTSDYSIAMDEIHQKDFVNWLLAQC (bridge 16-20) [triple agonist of SEQ ID NO: 53],In vitro activity relative to native peptide (%) vs. GLP-1,human GLP-1 receptor,161%
same,In vitro activity relative to native peptide (%) vs. Glucagon,human GCG receptor,8.4%
same,In vitro activity relative to native peptide (%) vs. GIP,human GIP receptor,1.3%
H[Aib]QGTFTSDYSKYLDEKRQKEFVNWLLAQKC (bridge 16-20) [triple agonist of SEQ ID NO: 34],In vitro activity relative to native peptide (%) vs. GLP-1,human GLP-1 receptor,19.1%
same,In vitro activity relative to native peptide (%) vs. Glucagon,human GCG receptor,0.92%
same,In vitro activity relative to native peptide (%) vs. GIP,human GIP receptor,0.6%
H[Aib]QGTFTSDYSKYLDEKRAKEFVQWLLDHHPSSGQPPPSC (bridge 16-20) [triple agonist of SEQ ID NO: 50],In vitro activity relative to native peptide (%) vs. GLP-1,human GLP-1 receptor,67.4%
same,In vitro activity relative to native peptide (%) vs. Glucagon,human GCG receptor,50.5%
same,In vitro activity relative to native peptide (%) vs. GIP,human GIP receptor,2.7%
H[Aib]QGTFTSDVSSYLLGQQQKEFIAWLVKGGGPSSGAPPPSC [triple agonist of SEQ ID NO: 5],In vitro activity relative to native peptide (%) vs. GLP-1,human GLP-1 receptor,42.1%
same,In vitro activity relative to native peptide (%) vs. Glucagon,human GCG receptor,< 0.1%
same,In vitro activity relative to native peptide (%) vs. GIP,human GIP receptor,< 0.1%
[Acetyl(2-(4-imidazolyl))][Aib]QGTFTSDKSSYLDERAAQDFVQWLLDGGPSSGAPPPSS (not fully specified) [triple agonist of SEQ ID NO: 38],In vitro activity relative to native peptide (%) vs. GLP-1,human GLP-1 receptor,2.3%
same,In vitro activity relative to native peptide (%) vs. Glucagon,human GCG receptor,1%
same,In vitro activity relative to native peptide (%) vs. GIP,human GIP receptor,1%
H[Aib]QGTFTSDVSSYLLGQQQKEFIAWLVKGC [triple agonist of SEQ ID NO: 4],In vitro activity relative to native peptide (%) vs. GLP-1,human GLP-1 receptor,8.5%
same,In vitro activity relative to native peptide (%) vs. Glucagon,human GCG receptor,< 0.1%
same,In vitro activity relative to native peptide (%) vs. GIP,human GIP receptor,< 0.1%
H[Aib]QGTFTSDYSKYLDEKRQKEFVNWLLAQC (bridge 16-20) [triple agonist of SEQ ID NO: 56],In vitro activity relative to native peptide (%) vs. GLP-1,human GLP-1 receptor,57.9%
same,In vitro activity relative to native peptide (%) vs. Glucagon,human GCG receptor,4.9%
same,In vitro activity relative to native peptide (%) vs. GIP,human GIP receptor,0.8%
H[Aib]QGTFTSDYSKYLDEKRQKEFVQWLLDTC (bridge 16-20) [triple agonist of SEQ ID NO: 52],In vitro activity relative to native peptide (%) vs. GLP-1,human GLP-1 receptor,44.1%
same,In vitro activity relative to native peptide (%) vs. Glucagon,human GCG receptor,7.5%
same,In vitro activity relative to native peptide (%) vs. GIP,human GIP receptor,0.3%
H[Aib]QGTFTSDYSIAMDEIHQKDFVNWLLNTKC (bridge 16-20) [triple agonist of SEQ ID NO: 35],In vitro activity relative to native peptide (%) vs. GLP-1,human GLP-1 receptor,7.5%
same,In vitro activity relative to native peptide (%) vs. Glucagon,human GCG receptor,< 0.1%
same,In vitro activity relative to native peptide (%) vs. GIP,human GIP receptor,1.3%
H[Aib]QGTFTSDYSKYLDGQHAQCFVAWLLAGGGPSSGAPPPS [triple agonist of SEQ ID NO: 39],In vitro activity relative to native peptide (%) vs. GLP-1,human GLP-1 receptor,13.9%
same,In vitro activity relative to native peptide (%) vs. Glucagon,human GCG receptor,0.53%
same,In vitro activity relative to native peptide (%) vs. GIP,human GIP receptor,< 0.1%
Y[Aib]QGTFTSDYSKYLDEKRAKEFVQWLLDHHCSSGQPPPS (bridge 16-20) [triple agonist of SEQ ID NO: 43],In vitro activity relative to native peptide (%) vs. GLP-1,human GLP-1 receptor,12.6%
same,In vitro activity relative to native peptide (%) vs. Glucagon,human GCG receptor,88.4%
same,In vitro activity relative to native peptide (%) vs. GIP,human GIP receptor,3.7%
H[Aib]QGTFTSDVSSYLDGQAAKEFIAWLVKGC [triple agonist of SEQ ID NO: 1],In vitro activity relative to native peptide (%) vs. GLP-1,human GLP-1 receptor,3.2%
same,In vitro activity relative to native peptide (%) vs. Glucagon,human GCG receptor,< 0.1%
same,In vitro activity relative to native peptide (%) vs. GIP,human GIP receptor,< 0.1%
H[Aib]QGTFTSDVSSYLDGQAAKEFVAWLLKGC [triple agonist of SEQ ID NO: 6],In vitro activity relative to native peptide (%) vs. GLP-1,human GLP-1 receptor,17%
same,In vitro activity relative to native peptide (%) vs. Glucagon,human GCG receptor,< 0.1%
same,In vitro activity relative to native peptide (%) vs. GIP,human GIP receptor,< 0.1%
[Acetyl(2-(4-imidazolyl))][Aib]QGTFTSDYSICMDEIHQKDFVNWLLNTK (bridge 16-20; not fully specified) [triple agonist of SEQ ID NO: 49],In vitro activity relative to native peptide (%) vs. GLP-1,human GLP-1 receptor,29.8%
same,In vitro activity relative to native peptide (%) vs. Glucagon,human GCG receptor,< 0.1%
same,In vitro activity relative to native peptide (%) vs. GIP,human GIP receptor,3.3%
HGQGTFTSDCSKQLDGQAAQEFVAWLLAGGPSSGAPPPS [triple agonist of SEQ ID NO: 44],In vitro activity relative to native peptide (%) vs. GLP-1,human GLP-1 receptor,1.3%
same,In vitro activity relative to native peptide (%) vs. Glucagon,human GCG receptor,< 0.1%
same,In vitro activity relative to native peptide (%) vs. GIP,human GIP receptor,< 0.1%
HGQGTFTSDCSKYMDGQAAQDFVAWLLAGGPSSGAPPPS [triple agonist of SEQ ID NO: 45],In vitro activity relative to native peptide (%) vs. GLP-1,human GLP-1 receptor,6.6%
same,In vitro activity relative to native peptide (%) vs. Glucagon,human GCG receptor,< 0.1%
same,In vitro activity relative to native peptide (%) vs. GIP,human GIP receptor,< 0.1%
HGQGTFTSDCSKYLDEQHAQEFVAWLLAGGPSSGAPPPS [triple agonist of SEQ ID NO: 46],In vitro activity relative to native peptide (%) vs. GLP-1,human GLP-1 receptor,1.4%
same,In vitro activity relative to native peptide (%) vs. Glucagon,human GCG receptor,< 0.1%
same,In vitro activity relative to native peptide (%) vs. GIP,human GIP receptor,< 0.1%
HGQGTFTSDCSKYLDGQRAQEFVAWLLAGGPSSGAPPPS [triple agonist of SEQ ID NO: 47],In vitro activity relative to native peptide (%) vs. GLP-1,human GLP-1 receptor,2.4%
same,In vitro activity relative to native peptide (%) vs. Glucagon,human GCG receptor,< 0.1%
same,In vitro activity relative to native peptide (%) vs. GIP,human GIP receptor,< 0.1%
HGQGTFTSDCSKYLDGQRAQDFVNWLLAGGPSSGAPPPS [triple agonist of SEQ ID NO: 48],In vitro activity relative to native peptide (%) vs. GLP-1,human GLP-1 receptor,1.5%
same,In vitro activity relative to native peptide (%) vs. Glucagon,human GCG receptor,< 0.1%
same,In vitro activity relative to native peptide (%) vs. GIP,human GIP receptor,< 0.1%
H[Aib]QGTFTSDYSKYLCEKRQKEFVQWLLNGGPSSGAPPPSG (bridge 16-20) [triple agonist of SEQ ID NO: 36],In vitro activity relative to native peptide (%) vs. GLP-1,human GLP-1 receptor,37.4%
same,In vitro activity relative to native peptide (%) vs. Glucagon,human GCG receptor,0.39%
same,In vitro activity relative to native peptide (%) vs. GIP,human GIP receptor,0.2%
H[Aib]EGTFTSDYSIAMDEIHQKDFVDWLLAEC (bridge 16-20) [triple agonist of SEQ ID NO: 54],In vitro activity relative to native peptide (%) vs. GLP-1,human GLP-1 receptor,30.6%
same,In vitro activity relative to native peptide (%) vs. Glucagon,human GCG receptor,1.4%
same,In vitro activity relative to native peptide (%) vs. GIP,human GIP receptor,0.1%
H[Aib]QGTFTSDKSKYLDERACQDFVQWLLDGGPSSGAPPPS [triple agonist of SEQ ID NO: 40],In vitro activity relative to native peptide (%) vs. GLP-1,human GLP-1 receptor,75.2%
same,In vitro activity relative to native peptide (%) vs. Glucagon,human GCG receptor,< 0.1%
same,In vitro activity relative to native peptide (%) vs. GIP,human GIP receptor,< 0.1%
